Values of other authors, collected in PMC7830601.
Where two headings read alike, the source gives them in different places. Blank lines part the entries; values can stand above or below the substance they belong to.

Columns and labels:
[1] = target: AIM2 HIN (Homo sapiens) (UniProt O14862); assay: ITC
[2] = target: ASC PYD (Homo sapiens) (UniProt Q9ULZ3)
[3] = target: ASC PYD (Homo sapiens) (UniProt Q9ULZ3); remark: listed apart in the source
[4] = target: ASC CARD (Homo sapiens) (UniProt Q9ULZ3); assay: NMR

- Kd [1]: 23.5 µM
Substance: AIM2 PYD (from UniProt O14862)

- Kd [2]: 4.08 µM
- Kd [3]: 3.81 µM
Substance: ASC2 (from UniProt Q8WXC3)

- Kd [4]: 50 µM
Substance: ASC CARD (from UniProt Q9ULZ3)
